Experimental data reported in patent US20040038398A1.
Each block holds one substance with its values, some of them ahead of it.

How the values were obtained:
[1] = target: CD2 antigen on human peripheral blood CD14+ myeloid cells / primary dendritic cells (and CD3+ T cells) (human) (UniProt P06729); assay: cell-based or functional assay
[2] = target: CD2 antigen on human peripheral blood CD14+ myeloid cells / primary dendritic cells (and CD3+ T cells) (human) (UniProt P06729); assay: flow cytometry, staining of enriched human CD14+ myeloid cells
[3] = target: CD2 antigen on human peripheral blood CD14+ myeloid cells / primary dendritic cells (and CD3+ T cells) (human) (UniProt P06729); assay: flow cytometry, anti-T113 staining after 30 min pre-incubation with anti-T112, 4 C, Mg++/Ca++-free medium

Sequence of UniProt P06729 (P06729 25-351): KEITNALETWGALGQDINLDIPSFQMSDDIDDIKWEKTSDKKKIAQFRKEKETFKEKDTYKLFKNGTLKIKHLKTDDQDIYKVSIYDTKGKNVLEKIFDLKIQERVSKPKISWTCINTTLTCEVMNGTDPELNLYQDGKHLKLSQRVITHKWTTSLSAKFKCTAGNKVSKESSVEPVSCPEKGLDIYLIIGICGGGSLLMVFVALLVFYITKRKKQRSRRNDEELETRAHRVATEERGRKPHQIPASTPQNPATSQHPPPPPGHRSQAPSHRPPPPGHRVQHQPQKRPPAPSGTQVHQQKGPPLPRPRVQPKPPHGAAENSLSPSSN

- IL-1β in DC/CHO-58 cocultures compared with DC/CHO-NEO [1]: 2 fold
- IL-12 in DC/CHO-58 cocultures compared with DC/CHO-NEO [1]: 26 fold
- level of HLA-DR on primary dendritic cells cocultured with CHO-58 [1]: > 2.5 fold
Substance: CD58 expressed on transfected CHO cells (CHO-58) (from UniProt P19256 29-250) (ligand)

- percent of CD14+ Mx on which CD2 was identified [2]: 30%
- IL-1β release, monocyte-derived dendritic cells against primary dendritic cells [1]: 75 fold
- IL-12 release, monocyte-derived dendritic cells against primary dendritic cells [1]: 100 fold
- allogeneic naive CD4 T cell proliferation induced by antibody-pulsed primary dendritic cells ([3H]thymidine) [1]: 2.5 fold
Substance: anti-T111 monoclonal antibody

- percent of CD14+ Mx on which CD2 was identified [2]: 37%
Substance: anti-T112 monoclonal antibody

- percent of CD14+ Mx that were CD2+ [3]: 20%
- HLA-DQ level on primary dendritic cells (anti-T113 added to anti-T112-enriched cells) [1]: 9 fold
- HLA-DR level on primary dendritic cells (anti-T113 added to anti-T112-enriched cells) [1]: 2 fold
- [Ca++]i in CD3+ T cells above baseline (anti-T112 and anti-T113 cross-linked with goat anti-mouse IgG) [1]: 180%
- high expressing CD86 population of primary dendritic cells (anti-T112/3 pair) [1]: 65%
- increase in [Ca++]i in CD14+ Mx (anti-T113 added after anti-T112) [1]: 69%
- increase in [Ca++]i in CD14+ Mx above baseline (anti-T112 and anti-T113 cross-linked with goat anti-mouse IgG) [1]: 95%
- level of CD40 on primary dendritic cells (anti-T112/3 pair) [1]: 2 fold
- level of CD54 on primary dendritic cells (baseline 14%) [1]: 9 fold
- level of CD80 on primary dendritic cells (anti-T112/3 pair) [1]: 3 fold
- levels of HLA-DR and HLA-DQ on primary dendritic cells (anti-T112/3 pair against control) [1]: 2 to 3 fold
Substance: anti-T113 monoclonal antibody
- CD50 MFI of primary dendritic cells, after CD2 engagement [1]: 90 MFI
- CD50 MFI of primary dendritic cells, control [1]: 148 MFI
- MFI of CD50^hi (so in the source) primary dendritic cells [1]: 53%
- percent CD50^hi of primary dendritic cells, after CD2 engagement [1]: 76%
- percent CD50^hi of primary dendritic cells, control [1]: 96%
- percentage of CD50^hi (so in the source) of primary dendritic cells [1]: 21%
